Results on three molecules are retold here after paper PMC10374971, “In vivo and in vitro characterizations of melibiose permease (MelB) conformation-dependent nanobodies reveal sugar-binding mechanisms” (The Journal of Biological Chemistry, 2023).

The target in assay [1] is MelBSt (Salmonella enterica serovar Typhimurium) (UniProt P30878). The settings on record: cited from earlier work.
Assay [2] has as its target MelBSt/Nb733 complex, formed beforehand (MelBSt 50 μM with Nb733 75 μM, molar ratio 1:1.5) (Salmonella enterica serovar Typhimurium | Lama glama) (UniProt P30878). Put plainly: ITC; EIIA^Glc (450 μM) in the syringe, MelBSt (50 μM), free or complexed with Nb733 (75 μM), in the sample cell; 20 mM Tris-HCl pH 7.5, 100 mM NaCl, 0.01% DDM, 10% glycerol; 25 °C; one-site independent-binding model.

Assay [3] has as its target T1, Salmonella enterica serovar Typhimurium melibiose permease (MelBSt), wild type (Salmonella enterica serovar Typhimurium, UniProt P30878 6-476).
T1 construct: melibiose permease MelB of Salmonella enterica serovar Typhimurium, wild type; Membrane protein in detergent (0.01% DDM) in the ITC; also called WT MelBSt; source: E. coli DW2, plasmid pK95 ΔAH/MelBSt/CHis10
Described as above. The settings on record: both partners purified.

MelBSt/Nb733 complex, formed beforehand (MelBSt 50 μM with Nb733 75 μM, molar ratio 1:1.5) (Salmonella enterica serovar Typhimurium | Lama glama), sequence (P30878 whole entry, looked up, one chain of several): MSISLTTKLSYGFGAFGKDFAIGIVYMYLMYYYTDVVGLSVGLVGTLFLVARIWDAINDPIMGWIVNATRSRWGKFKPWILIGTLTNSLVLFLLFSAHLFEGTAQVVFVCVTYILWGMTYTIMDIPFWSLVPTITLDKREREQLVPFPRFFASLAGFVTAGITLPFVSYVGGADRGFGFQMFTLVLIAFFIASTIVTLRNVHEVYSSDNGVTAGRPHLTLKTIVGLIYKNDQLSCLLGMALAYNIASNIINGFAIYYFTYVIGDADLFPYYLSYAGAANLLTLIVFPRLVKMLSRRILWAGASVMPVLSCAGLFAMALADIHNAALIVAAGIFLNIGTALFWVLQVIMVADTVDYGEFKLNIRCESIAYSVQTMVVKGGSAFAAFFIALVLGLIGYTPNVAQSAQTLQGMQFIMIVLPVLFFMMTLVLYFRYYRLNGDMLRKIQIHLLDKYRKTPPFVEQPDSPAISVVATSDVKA
T1 sequence (P30878 6-476): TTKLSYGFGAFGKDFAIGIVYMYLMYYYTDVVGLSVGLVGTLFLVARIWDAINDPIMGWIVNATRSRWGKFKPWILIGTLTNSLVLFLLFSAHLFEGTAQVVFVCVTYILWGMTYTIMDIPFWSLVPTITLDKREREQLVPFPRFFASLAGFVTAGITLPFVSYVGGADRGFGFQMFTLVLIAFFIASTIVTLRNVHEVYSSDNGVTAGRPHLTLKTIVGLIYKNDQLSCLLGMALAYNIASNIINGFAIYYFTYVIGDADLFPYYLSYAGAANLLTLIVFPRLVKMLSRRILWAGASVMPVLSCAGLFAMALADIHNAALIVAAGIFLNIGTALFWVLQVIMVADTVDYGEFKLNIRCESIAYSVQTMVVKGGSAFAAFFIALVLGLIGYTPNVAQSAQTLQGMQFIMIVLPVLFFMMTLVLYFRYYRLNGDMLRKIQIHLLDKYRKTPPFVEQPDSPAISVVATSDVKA
MelBSt (Salmonella enterica serovar Typhimurium), sequence (P30878 whole entry): as the sequence (P30878 whole entry, looked up, one chain of several) above

On to EIIAGlc (from UniProt P69783), for which the Kd in assay [1] was 3000 nM.

“EIIA^Glc of the glucose-specific phosphoenolpyruvate/sugar phosphotransferase system, unphosphorylated (from UniProt P69783 1-169) (natural protein)”: in assay [2], the Kd was 8.12 mM, the dH is -28.2 kJ/mol and the stoichiometry N came out at 0.76.

B1: EIIA^Glc of the glucose-specific phosphoenolpyruvate/sugar phosphotransferase system, unphosphorylated (natural protein, UniProt P69783 1-169, looked up)
chain: MGLFDKLKSLVSDDKKDTGTIEIIAPLSGEIVNIEDVPDVVFAEKIVGDGIAIKPTGNKMVAPVDGTIGKIFETNHAFSIESDSGVELFVHFGIDTVELKGEGFKRIAEEGQRVKVGDTVIEFDLPLLEEKAKSTLTPVVISNMDEIKELIKLSGSVTVGETPVIRIKK
notes: regulatory enzyme EIIA^Glc of the glucose-specific phosphotransferase system, unphosphorylated; source: E. coli T7 Express, overexpressed, as described (24)
As for B1, in assay [3], the Kd turned out to be 3.33 mM, the dH was -39.9 kJ/mol and the “stoichiometry N” value was 0.81.

For orientation: Kd means the concentration at which binding is half-saturated. As a reminder, the stoichiometry N is a count of units in the complex or per binding partner.
